Source: US20200317768A1 (published 2020)

T1: cynomolgus monkey FcγRIIa2 extracellular domain, His-tagged (cynomolgus monkey)
T1 construct: also called cyno FcγRIIa2; cynoFcgRIIa2; not shown: C-terminal His-tag
T1 chain: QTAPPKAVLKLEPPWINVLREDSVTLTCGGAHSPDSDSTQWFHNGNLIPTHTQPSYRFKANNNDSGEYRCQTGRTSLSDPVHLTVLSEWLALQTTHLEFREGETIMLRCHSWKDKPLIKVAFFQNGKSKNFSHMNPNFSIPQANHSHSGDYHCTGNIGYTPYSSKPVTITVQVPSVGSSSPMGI

T2: cynomolgus monkey FcγRIIa3 extracellular domain, His-tagged (cynomolgus monkey)
T2 construct: also called cyno FcγRIIa3; cynoFcgRIIa3; not shown: C-terminal His-tag
T2 chain: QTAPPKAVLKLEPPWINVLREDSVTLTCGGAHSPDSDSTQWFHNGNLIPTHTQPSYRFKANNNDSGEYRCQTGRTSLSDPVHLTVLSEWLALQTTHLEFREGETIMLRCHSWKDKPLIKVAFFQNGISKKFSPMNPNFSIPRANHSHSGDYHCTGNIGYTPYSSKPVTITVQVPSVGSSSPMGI

T3: cynomolgus monkey FcγRIIb extracellular domain, His-tagged (cynomolgus monkey)
T3 construct: also called cyno FcγRIIb; cynoFcγRIIb; not shown: C-terminal His-tag
T3 chain: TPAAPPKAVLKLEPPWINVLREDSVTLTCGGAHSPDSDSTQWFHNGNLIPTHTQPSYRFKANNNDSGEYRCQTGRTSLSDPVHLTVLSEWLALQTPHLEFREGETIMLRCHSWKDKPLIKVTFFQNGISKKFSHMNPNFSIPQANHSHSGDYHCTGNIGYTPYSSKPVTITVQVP

T4: cynomolgus monkey FcγRIIIaS extracellular domain, His-tagged (cynomolgus monkey, UniProt Q8SPW2 21-206 at identity 1.00))
T4 construct: also called cyno FcγRIIIaS; cynoFcγRIIIaS; not shown: C-terminal His-tag
T4 chain: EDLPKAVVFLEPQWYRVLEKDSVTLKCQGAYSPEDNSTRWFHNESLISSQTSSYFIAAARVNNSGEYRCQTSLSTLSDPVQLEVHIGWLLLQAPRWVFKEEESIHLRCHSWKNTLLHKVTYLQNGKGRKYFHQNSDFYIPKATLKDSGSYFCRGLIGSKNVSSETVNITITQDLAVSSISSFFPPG

T5: human FcγRIIaH extracellular domain, His-tagged (human, UniProt P12318 34-217)
T5 construct: also called human FcγRIIa (type H); FcgRIIaH; not shown: C-terminal His-tag
T5 sequence: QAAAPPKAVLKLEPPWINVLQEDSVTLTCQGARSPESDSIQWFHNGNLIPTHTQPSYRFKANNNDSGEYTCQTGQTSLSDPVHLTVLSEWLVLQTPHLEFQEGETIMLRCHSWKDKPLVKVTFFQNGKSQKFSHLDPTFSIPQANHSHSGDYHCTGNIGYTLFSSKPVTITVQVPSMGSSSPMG

T6: human FcγRIIaR extracellular domain, His-tagged (human, UniProt P12318 34-217)
T6 construct: also called human FcγRIIa (type R); FcgRIIaR; not shown: C-terminal His-tag
T6 chain: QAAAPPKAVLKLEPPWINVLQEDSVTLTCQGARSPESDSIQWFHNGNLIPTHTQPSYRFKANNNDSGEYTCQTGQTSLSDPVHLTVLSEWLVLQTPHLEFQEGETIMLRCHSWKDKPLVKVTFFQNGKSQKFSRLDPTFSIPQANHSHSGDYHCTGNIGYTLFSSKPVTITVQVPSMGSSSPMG

T7: human FcγRIIb extracellular domain, His-tagged (human, UniProt P31994 43-217)
T7 construct: also called FcgRIIb (human); not shown: C-terminal His-tag
T7 sequence: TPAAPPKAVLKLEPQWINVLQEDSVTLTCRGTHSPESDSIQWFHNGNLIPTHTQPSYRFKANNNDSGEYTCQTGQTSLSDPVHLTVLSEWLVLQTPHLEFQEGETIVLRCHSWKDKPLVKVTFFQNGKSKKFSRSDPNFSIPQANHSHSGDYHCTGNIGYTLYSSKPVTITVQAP


How the values were obtained:
Experiment in all cases: SPR (BIACORE); KD of SG1 divided by KD of variant;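 also: relative to parent M103205H795-SG1 carrying the SG1 human heavy chain constant region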
[1] = molecular target: T1, cynomolgus monkey FcγRIIa2 …
Procedure: (§1) The kinetic analysis of interactions between these antibodies and FcγR was carried out using BIACORE® T200 or BIACORE® 4000 (GE Healthcare). HBS-EP+ (GE Healthcare) was used as the running buffer, and the measurement temperature was set to 25° C. A chip produced by immobilizing Protein A. Protein A/G or mouse anti-human IgG kappa light chain (BD Biosciences) onto a Series S Sensor Chip CM4 or CM5 (GE Healthcare) by the amine-coupling method was used. […] After the measurement, the antibody captured on the chip was washed off by allowing reaction with 10 mM glycine-HCl, pH1.5 and 25 mM NaOH so that the chip was regenerated and used repeatedly. The sensorgrams obtained as measurement results were analyzed by the 1:1 Langmuir binding model using the BIACORE® Evaluation Software to calculate the binding rate constant ka (L/mol/s) and dissociation rate constant kd (l/s), and the dissociation constant KD (mol/L) was calculated from these values. […] Regarding such interactions, KD values were calculated using the following 1:1 binding model described in BIACORE® T100 Software Handbook BR1006-48 Edition AE.

[2] = molecular target: T2, cynomolgus monkey FcγRIIa3 …
Procedure: as §1

[3] = molecular target: T3, cynomolgus monkey FcγRIIb extracellular …
Procedure: as §1

[4] = molecular target: T4, cynomolgus monkey FcγRIIIaS …
Procedure: as §1

[5] = molecular target: T5, human FcγRIIaH extracellular domain, …
Procedure: as §1

[6] = molecular target: T6, human FcγRIIaR extracellular domain, …
Procedure: as §1

[7] = molecular target: T7, human FcγRIIb extracellular domain, …
Procedure: as §1

Row | KD fold (SG1 = 1) [1] | KD fold (SG1 = 1) [2] | KD fold (SG1 = 1) [3] | KD fold (SG1 = 1) [4] | KD fold (SG1 = 1) [5] | KD fold (SG1 = 1) [6] | KD fold (SG1 = 1) [7] | Binder
1 | 2.5 fold | 4.9 fold | 3.8 fold | 0.2 fold | 3.8 fold | 3.2 fold | 2.7 fold | M103205H795-MY461/M103202L889-SK1 (antibody, human IgG1, kappa, copies: 2 + 2) heavy: QVTLKESGPVLVKPTETLTLTCTVSGIDLSHDDISWVRQAPGKGLEWVGIISYAGSTYYASWAKGRLTISKDTSKNQVVLTMTNMDPVDTATYYCARGVPAYSHGGDLWGQGTLVTVSSASTKGPSVFPLAPSSKSTSGGTAALGCLVKDYFPEPVTVSWNSGALTSGVHTFPAVLQSSGLYSLSSVVTVPSSSLGTQTYICNVNHKPSNTKVDKKVEPKSCDKTHTCPPCPFPELLTGPSVFLFPPKPKDTLMISRTPEVTCVVVDVSDEDPEVKFNWYVDGVEVHNAKTKPREEQYNSTYRVVSVLTVLHQDWLNGKEYKCKVSNKALPKPIEKTISKAKGQPREPQVYTLPPSREEMTKNQVSLTCLVKGFYPSDIAVEWESNGQPENNYKTTPPVLDSDGSFFLYSKLTVDKSRWQQGNVFSCSVMHEALHNHYTQKSLSLSP light: DIVMTQSPATLSLSPGERATLSCTSSQSVYHANWLSWFQQKPGQPPKLLIYWASTLAYGVPSRFSGSGSGTDFTLTISSLQPEDAATYYCAGGYGGGRYAFGQGTKVEIKRTVAAPSVFIFPPSDEQLKSGTASVVCLLNNFYPREAKVQWKVDNALQSGNSQESVTEQDSKDSTYSLSSTLTLSKADYEKHKVYACEVTHQGLSSPVTKSFNRGEC
2 | 1.6 fold | 3.1 fold | 2.3 fold | 0.1 fold | 2.7 fold | 2 fold | 1.9 fold | M103205H795-MY460/M103202L889-SK1 (antibody, human IgG1, kappa, copies: 2 + 2) heavy: QVTLKESGPVLVKPTETLTLTCTVSGIDLSHDDISWVRQAPGKGLEWVGIISYAGSTYYASWAKGRLTISKDTSKNQVVLTMTNMDPVDTATYYCARGVPAYSHGGDLWGQGTLVTVSSASTKGPSVFPLAPSSKSTSGGTAALGCLVKDYFPEPVTVSWNSGALTSGVHTFPAVLQSSGLYSLSSVVTVPSSSLGTQTYICNVNHKPSNTKVDKKVEPKSCDKTHTCPPCPEPELLTGPSVFLFPPKPKDTLMISRTPEVTCVVVDVSDEDPEVKFNWYVDGVEVHNAKTKPREEQYNSTYRVVSVLTVLHQDWLNGKEYKCKVSNKALPKPIEKTISKAKGQPREPQVYTLPPSREEMTKNQVSLTCLVKGFYPSDIAVEWESNGQPENNYKTTPPVLDSDGSFFLYSKLTVDKSRWQQGNVFSCSVMHEALHNHYTQKSLSLSP light: DIVMTQSPATLSLSPGERATLSCTSSQSVYHANWLSWFQQKPGQPPKLLIYWASTLAYGVPSRFSGSGSGTDFTLTISSLQPEDAATYYCAGGYGGGRYAFGQGTKVEIKRTVAAPSVFIFPPSDEQLKSGTASVVCLLNNFYPREAKVQWKVDNALQSGNSQESVTEQDSKDSTYSLSSTLTLSKADYEKHKVYACEVTHQGLSSPVTKSFNRGEC

The remaining lines, values behind:

Row | Binder | KD fold (SG1 = 1) [1] | KD fold (SG1 = 1) [2] | KD fold (SG1 = 1) [3] | KD fold (SG1 = 1) [4] | KD fold (SG1 = 1) [5] | KD fold (SG1 = 1) [6] | KD fold (SG1 = 1) [7]
3 | M103205H795-MY448/M103202L889-SK1 (antibody, human IgG1, kappa, copies: 2 + 2) heavy: QVTLKESGPVLVKPTETLTLTCTVSGIDLSHDDISWVRQAPGKGLEWVGIISYAGSTYYASWAKGRLTISKDTSKNQVVLTMTNMDPVDTATYYCARGVPAYSHGGDLWGQGTLVTVSSASTKGPSVFPLAPSSKSTSGGTAALGCLVKDYFPEPVTVSWNSGALTSGVHTFPAVLQSSGLYSLSSVVTVPSSSLGTQTYICNVNHKPSNTKVDKKVEPKSCDKTHTCPPCPAKELLTGPSVFLFPPKPKDTLMISRTPEVTCVVVDVSDEDPEVKFNWYVDGVEVHNAKTKPREEQYNSTYRVVSVLTVLHQDWLNGKEYKCKVSNKALPKPIEKTISKAKGQPREPQVYTLPPSREEMTKNQVSLTCLVKGFYPSDIAVEWESNGQPENNYKTTPPVLDSDGSFFLYSKLTVDKSRWQQGNVFSCSVMHEALHNHYTQKSLSLSP light: DIVMTQSPATLSLSPGERATLSCTSSQSVYHANWLSWFQQKPGQPPKLLIYWASTLAYGVPSRFSGSGSGTDFTLTISSLQPEDAATYYCAGGYGGGRYAFGQGTKVEIKRTVAAPSVFIFPPSDEQLKSGTASVVCLLNNFYPREAKVQWKVDNALQSGNSQESVTEQDSKDSTYSLSSTLTLSKADYEKHKVYACEVTHQGLSSPVTKSFNRGEC | 0.7 fold | 0.8 fold | 0.6 fold | 0.1 fold | 0.7 fold | 0.5 fold | 0.5 fold
4 | M103205H795-MY459/M103202L889-SK1 (antibody, human IgG1, kappa, copies: 2 + 2) heavy: QVTLKESGPVLVKPTETLTLTCTVSGIDLSHDDISWVRQAPGKGLEWVGIISYAGSTYYASWAKGRLTISKDTSKNQVVLTMTNMDPVDTATYYCARGVPAYSHGGDLWGQGTLVTVSSASTKGPSVFPLAPSSKSTSGGTAALGCLVKDYFPEPVTVSWNSGALTSGVHTFPAVLQSSGLYSLSSVVTVPSSSLGTQTYICNVNHKPSNTKVDKKVEPKSCDKTHTCPPCPDPELLTGPSVFLFPPKPKDTLMISRTPEVTCVVVDVSDEDPEVKFNWYVDGVEVHNAKTKPREEQYNSTYRVVSVLTVLHQDWLNGKEYKCKVSNKALPKPIEKTISKAKGQPREPQVYTLPPSREEMTKNQVSLTCLVKGFYPSDIAVEWESNGQPENNYKTTPPVLDSDGSFFLYSKLTVDKSRWQQGNVFSCSVMHEALHNHYTQKSLSLSP light: DIVMTQSPATLSLSPGERATLSCTSSQSVYHANWLSWFQQKPGQPPKLLIYWASTLAYGVPSRFSGSGSGTDFTLTISSLQPEDAATYYCAGGYGGGRYAFGQGTKVEIKRTVAAPSVFIFPPSDEQLKSGTASVVCLLNNFYPREAKVQWKVDNALQSGNSQESVTEQDSKDSTYSLSSTLTLSKADYEKHKVYACEVTHQGLSSPVTKSFNRGEC | 1.1 fold | 2.3 fold | 1.6 fold | 0.1 fold | 1.8 fold | 2 fold | 1.8 fold
